According to US20260242478A1 (published 2026):

What was measured:
[1] = target: T1, anti-CD28 scFv (VH - linker 1 - VL) (biotinylated (site not stated)); test: clonal phage ELISA; biotinylated anti-CD28 scFv on neutravidin plate, anti-M13-HRP detection;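 note: crude supernatants of phage clones were tested in wells pretreated with blocking buffer either alone or supplemented with soluble CD28 protein before phage addition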
T1 construct: Captured as biotinylated scFv on neutravidin coated plates in the clonal phage ELISA
T1 sequence (scFv, as listed by the source): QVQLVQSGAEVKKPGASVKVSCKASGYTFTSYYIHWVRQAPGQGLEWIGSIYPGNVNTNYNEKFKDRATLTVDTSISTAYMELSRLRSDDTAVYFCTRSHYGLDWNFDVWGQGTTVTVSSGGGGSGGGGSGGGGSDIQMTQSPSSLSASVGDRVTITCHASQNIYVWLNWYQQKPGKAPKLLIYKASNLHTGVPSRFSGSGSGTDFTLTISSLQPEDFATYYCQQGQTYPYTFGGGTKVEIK

[2] = target: T1, anti-CD28 scFv (VH - linker 1 - VL); test: clonal phage ELISA; captured anti-CD28 scFv pre-incubated with soluble CD28 (competitor), anti-M13-HRP detection;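 note: crude clonal phage supernatants added to wells pretreated with soluble CD28 in blocking buffer, compared against wells given blocking buffer only, then bound phage measured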
Procedure: Clonal phage were harvested as crude supernatants and screened via standard enzyme linked immunosorbent assays (ELISAs). […] Prior to the addition of clonal phage, wells were incubated with blocking buffer and CD28 soluble protein or blocking buffer alone. Without washing or aspirating, clonal phage supernatants were then added to the wells and incubated for a short time. Wells were then washed followed by detection of bound phage using a horse radish peroxidase conjugated anti-M13 antibody.

[3] = target: T2, anti-CD28 scFv (VH - linker 1 - VL) (biotinylated (site not given)); test: phage ELISA as before, wells pre-incubated with soluble CD28 (competitor)
T2 sequence (scFv, as listed by the source): as above

[4] = target: T2, anti-CD28 scFv (VH - linker 1 - VL); test: phage ELISA; biotinylated anti-CD28 scFv on neutravidin plate, clonal phage supernatant, anti-M13-HRP detection;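 note: before phage addition, wells were pretreated with soluble CD28 protein in blocking buffer, or with blocking buffer only as the comparison, then phage were added without washing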
[5] = target: T3, Anti-CD28 scFv (VH - linker 1 - VL) (biotinylated (site not stated)); test: phage ELISA; biotinylated anti-CD28 scFv on neutravidin plate, wells pre-incubated with soluble CD28 (competitor), anti-M13-HRP detection;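 note: bound clonal phage detected by peroxidase-labelled anti-M13 antibody, compared against wells given blocking buffer alone without soluble CD28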
T3 construct: Biotinylated scFv captured on neutravidin coated plates in the panning ELISA
T3 sequence (scFv, as listed by the source): as above

[6] = target: T4, Anti-CD28 scFv (VH - linker 1 - VL) (biotinylated (site not stated)); test: phage ELISA as above, wells pre-incubated with soluble CD28 (competitor);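 note: ELISA of crude clonal phage supernatants added to wells pre-treated with soluble CD28 in blocking buffer, bound phage read out with HRP-conjugated anti-M13 antibody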
T4 construct: Captured as biotinylated scFv on neutravidin plates in the panning ELISA
T4 sequence (scFv, as listed by the source): as above

[7] = target: anti-CD28 scFv (VH - linker 1 - VL) (biotinylated (site not stated)); test: phage ELISA; biotinylated anti-CD28 scFv on neutravidin plate, clonal phage supernatant, anti-M13-HRP;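 note: before the phage were added, wells were pre-incubated with soluble CD28 protein in blocking buffer, or with blocking buffer alone, and were not washed in between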
Target sequence in this assay (scFv, as listed by the source): as above

B1: Phage-216 (peptide)
peptide: MDWCPMNMWYQCFN
notes: tested as crude clonal phage supernatant
- CD28 scFv signal [1]: 0.639
- CD28 scFv signal in presence of CD28 [2]: 0.137

B2: Phage-91, clonal phage peptide … (peptide)
peptide: MDWCPRDLWFLCYN
notes: tested as crude clonal phage supernatant; not shown: pIII of the bacteriophage to which the peptide is fused
- CD28 scFv signal in presence of CD28 [3]: 0.424
- CD28 scFv signal [4]: 2.59

B3: Phage-72, clonal phage peptide MFWCPTTMWNRCFT (peptide)
peptide: MFWCPTTMWNRCFT
notes: as for B2
- CD28 scFv signal in presence of CD28 [3]: 0.338
- CD28 scFv signal [4]: 0.662

B4: Phage-71, clonal phage peptide MDWCPRYLWHECFA (peptide)
peptide: MDWCPRYLWHECFA
notes: as for B2
- CD28 scFv signal in presence of CD28 [3]: 0.429
- CD28 scFv signal [4]: 2.63

B5: Phage-197 (peptide)
peptide: MDWCPRHMWYECFF
notes: as for B1
- CD28 scFv signal [1]: 2.34
- CD28 scFv signal in presence of CD28 [2]: 0.298

B6: Phage-206 (peptide)
peptide: IHWCPINMWDKCYN
notes: as for B1
- CD28 scFv signal [1]: 2.08
- CD28 scFv signal in presence of CD28 [2]: 0.203

B7: Phage-200 (peptide)
peptide: MFWCPFDMWHFCFN
notes: as for B1
- CD28 scFv signal [1]: 2.29
- CD28 scFv signal in presence of CD28 [2]: 0.469

B8: Phage-199 (peptide)
peptide: MDWCPRNMWAQCFA
notes: as for B1
- CD28 scFv signal [1]: 2.31
- CD28 scFv signal in presence of CD28 [2]: 0.209

Binder: MDWCPLYLWAECFN (tested as crude phage supernatant) [Phage-298]
- CD28 scFv signal in presence of CD28 [5]: 0.193

B9: Phage-207 (peptide)
peptide: MDWCPRAMWHECFY
notes: as for B1
- CD28 scFv signal [1]: 1.92
- CD28 scFv signal in presence of CD28 [2]: 0.129

Binder: IDWCPMHMWDFCYN [Phage-390]
- CD28 scFv signal in presence of CD28 [6]: 0.232

B10: Phage-204 (peptide)
peptide: MDWCPRHMWNVCFS
notes: as for B1
- CD28 scFv signal [1]: 2.25
- CD28 scFv signal in presence of CD28 [2]: 0.13

B11: Phage-79, clonal phage peptide MDWCPRDLWHECFS (peptide)
peptide: MDWCPRDLWHECFS
notes: as for B2
- CD28 scFv signal in presence of CD28 [3]: 0.382
- CD28 scFv signal [4]: 2.65

B12: Phage-66, clonal phage peptide MDWCPRYLWNECFY (peptide)
peptide: MDWCPRYLWNECFY
notes: as for B2
- CD28 scFv signal in presence of CD28 [3]: 0.358
- CD28 scFv signal [4]: 2.54

B13: Phage-88, clonal phage peptide MDWCPIHLWHYCFN (peptide)
peptide: MDWCPIHLWHYCFN
notes: as for B2
- CD28 scFv signal in presence of CD28 [3]: 0.453
- CD28 scFv signal [4]: 2.6

B14: Phage-214 (peptide)
peptide: MDWCPTYMWSECFN
notes: as for B1
- CD28 scFv signal [1]: 0.754
- CD28 scFv signal in presence of CD28 [2]: 0.107

B15: Phage-202 (peptide)
peptide: MFWCPMDMWDQCFN
notes: as for B1
- CD28 scFv signal [1]: 2.26
- CD28 scFv signal in presence of CD28 [2]: 0.207

B16: Phage-68, clonal phage peptide MDWCPMYMWYECFA (peptide)
peptide: MDWCPMYMWYECFA
notes: as for B2
- CD28 scFv signal in presence of CD28 [3]: 0.358
- CD28 scFv signal [4]: 2.48

B17: Phage-84, clonal phage peptide MDWCPKYLWSVCFF (peptide)
peptide: MDWCPKYLWSVCFF
notes: as for B2
- CD28 scFv signal in presence of CD28 [3]: 0.826
- CD28 scFv signal [4]: 2.62

B18: Phage-212 (peptide)
peptide: MDWCPRAMWDKCFF
notes: as for B1
- CD28 scFv signal [1]: 0.985
- CD28 scFv signal in presence of CD28 [2]: 0.094

B19: Phage-77, clonal phage peptide MDWCPFYLWDECFN (peptide)
peptide: MDWCPFYLWDECFN
notes: as for B2
- CD28 scFv signal in presence of CD28 [3]: 0.291
- CD28 scFv signal [4]: 2.67

B20: Phage-90, clonal phage peptide MDWCPIDLWHLCFY (peptide)
peptide: MDWCPIDLWHLCFY
notes: as for B2
- CD28 scFv signal in presence of CD28 [3]: 0.488
- CD28 scFv signal [4]: 2.59

B21: Phage-75, clonal phage peptide MDWCPRSHWHVCYN (peptide)
peptide: MDWCPRSHWHVCYN
notes: as for B2
- CD28 scFv signal in presence of CD28 [3]: 0.281
- CD28 scFv signal [4]: 1.95

Binder: MDWCPRYLWNVCFA (tested as crude phage supernatant) [Phage-289]
- CD28 scFv signal in presence of CD28 [5]: 0.28

B22: Phage-215 (peptide)
peptide: MDWCPRYMWNECFN
notes: as for B1
- CD28 scFv signal [1]: 0.687
- CD28 scFv signal in presence of CD28 [2]: 0.128

B23: Phage-89, clonal phage peptide MDWCPRALWNVCFN (peptide)
peptide: MDWCPRALWNVCFN
notes: as for B2
- CD28 scFv signal in presence of CD28 [3]: 0.472
- CD28 scFv signal [4]: 2.6

B24: Phage-83, clonal phage peptide … (peptide)
peptide: MDWCPRFLWDECFN
notes: as for B2
- CD28 scFv signal in presence of CD28 [3]: 0.483
- CD28 scFv signal [4]: 2.63

B25: Phage-67, clonal phage peptide MNWCPTALWHVCFN (peptide)
peptide: MNWCPTALWHVCFN
notes: as for B2
- CD28 scFv signal in presence of CD28 [3]: 0.169
- CD28 scFv signal [4]: 1.64

B26: Phage-205 (peptide)
peptide: MDWCPTDMWHHCFL
notes: as for B1
- CD28 scFv signal [1]: 2.2
- CD28 scFv signal in presence of CD28 [2]: 0.126

B27: Phage-82, clonal phage peptide MDWCPRDLWTECFA (peptide)
peptide: MDWCPRDLWTECFA
notes: as for B2
- CD28 scFv signal in presence of CD28 [3]: 0.151
- CD28 scFv signal [4]: 2.63

B28: Phage-201 (peptide)
peptide: MDWCPRDMWDQCFD
notes: as for B1
- CD28 scFv signal [1]: 2.29
- CD28 scFv signal in presence of CD28 [2]: 0.119

B29: Phage-78, clonal phage peptide MDWCPRHLWHECFN (peptide)
peptide: MDWCPRHLWHECFN
notes: as for B2
- CD28 scFv signal in presence of CD28 [3]: 0.704
- CD28 scFv signal [4]: 2.65

B30: Phage-92, clonal phage peptide MDWCPRHLWHECFF (peptide)
peptide: MDWCPRHLWHECFF
notes: as for B2
- CD28 scFv signal in presence of CD28 [3]: 0.373
- CD28 scFv signal [4]: 2.58

B31: Phage-73, clonal phage peptide MDWCPRALWHECFN (peptide)
peptide: MDWCPRALWHECFN
notes: as for B2
- CD28 scFv signal in presence of CD28 [3]: 0.401
- CD28 scFv signal [4]: 2.69

B32: Phage-86, clonal phage peptide MDWCPRHLWAECFF (peptide)
peptide: MDWCPRHLWAECFF
notes: as for B2
- CD28 scFv signal in presence of CD28 [3]: 0.292
- CD28 scFv signal [4]: 2.61

B33: Phage-69, clonal phage peptide MDWCPIHMWADCFA (peptide)
peptide: MDWCPIHMWADCFA
notes: as for B2
- CD28 scFv signal in presence of CD28 [3]: 0.143
- CD28 scFv signal [4]: 2.46

B34: Phage-213 (peptide)
peptide: MNWCPSYMWDQCFA
notes: as for B1
- CD28 scFv signal [1]: 0.854
- CD28 scFv signal in presence of CD28 [2]: 0.105

Binder: LHWCPTSMWTYCYY [Phage-392]
- CD28 scFv signal in presence of CD28 [6]: 2.46

B35: Phage-87, clonal phage peptide MDWCPKDLWYLCFA (peptide)
peptide: MDWCPKDLWYLCFA
notes: as for B2
- CD28 scFv signal in presence of CD28 [3]: 0.213
- CD28 scFv signal [4]: 2.61

B36: Phage-218 (peptide)
peptide: TFGCPTTMWNRCFA
notes: as for B1
- CD28 scFv signal [1]: 0.181
- CD28 scFv signal in presence of CD28 [2]: 0.068

B37: Phage-70, clonal phage peptide ITWCPSSMWNRCFI (peptide)
peptide: ITWCPSSMWNRCFI
notes: as for B2
- CD28 scFv signal in presence of CD28 [3]: 0.11
- CD28 scFv signal [4]: 0.379

Binder: MDWCPPHLWHECFF [Phage-358 clonal phage peptide MDWCPPHLWHECFF]
- CD28 scFv signal [7]: 1.45

B38: Phage-209 (peptide)
peptide: IDWCPQDMWFYCFN
notes: as for B1
- CD28 scFv signal [1]: 1.42
- CD28 scFv signal in presence of CD28 [2]: 0.16

B39: Phage-74, clonal phage peptide MDWCPRDMWLFCYN (peptide)
peptide: MDWCPRDMWLFCYN
notes: as for B2
- CD28 scFv signal in presence of CD28 [3]: 1.02
- CD28 scFv signal [4]: 2.71

B40: Phage-210 (peptide)
peptide: MDWCPRDMWFECFA
notes: as for B1
- CD28 scFv signal [1]: 1.31
- CD28 scFv signal in presence of CD28 [2]: 0.143

B41: Phage-198 (peptide)
peptide: MDWCPRAMWNHCFN
notes: as for B1
- CD28 scFv signal [1]: 2.33
- CD28 scFv signal in presence of CD28 [2]: 0.426

B42: Phage-85, clonal phage peptide MDWCPMDLWYQCFN (peptide)
peptide: MDWCPMDLWYQCFN
notes: as for B2
- CD28 scFv signal in presence of CD28 [3]: 0.187
- CD28 scFv signal [4]: 2.62

B43: Phage-203 (peptide)
peptide: MSWCPRDMWFYCYA
notes: as for B1
- CD28 scFv signal [1]: 2.25
- CD28 scFv signal in presence of CD28 [2]: 0.174

B44: Phage-76, clonal phage peptide MDWCPRYLWSDCFA (peptide)
peptide: MDWCPRYLWSDCFA
notes: as for B2
- CD28 scFv signal in presence of CD28 [3]: 1.53
- CD28 scFv signal [4]: 2.73

Binder: MDWCPRHLWTECFS (tested as crude phage supernatant) [Phage-297]
- CD28 scFv signal in presence of CD28 [5]: 0.243

B45: Phage-217 (peptide)
peptide: MDWCPWDMWDKCFN
notes: as for B1
- CD28 scFv signal [1]: 0.586
- CD28 scFv signal in presence of CD28 [2]: 0.108

B46: Phage-208 (peptide)
peptide: MDWCPTDMWIVCFA
notes: as for B1
- CD28 scFv signal [1]: 1.5
- CD28 scFv signal in presence of CD28 [2]: 0.172
